Reference: patent publication US20170267750A1, “Method of Treating Ovarian and Renal Cancer Using Antibodies Against T Cell Immunoglobulin Domain and Mucin Domain 1 (TIM-1) Antigen” (Celldex Therapeutics, Inc., priority 2005, published 2017)
Changes are numbered by the printed parent chain.

B1: mAb 1.37: fully human IgG2 kappa anti-TIM-1 monoclonal antibody; heavy chain SEQ ID NO: 6, light chain SEQ ID NO: 8 (antibody, listed as Homo Sapiens, V domains shown)
VH: EVQLVESGGGLVQPGGSLRLSCAASGFTFTNYWMSWVRQAPGKGLEWVANIQQDGSEKYYVDSVRGRFTISRDNAKNSLYLQMNSLRAEDSAVYYCARWDYWGQGTLVTVSSA
VL: DIVMTQTPLSSTVILGQPASISCRSSQSLVHSDGNTYLNWLQQRPGQPPRLLIYMISNRFSGVPDRFSGSGAGTDFTLKISRVEAEDVGVYYCMQATESPQTFGQGTKVEIKR
B2: mAb 2.76: fully human IgG4 kappa anti-TIM-1 monoclonal antibody; heavy chain SEQ ID NO: 46, light chain SEQ ID NO: 48 (antibody, listed as Homo Sapiens, V domains shown)
VH: NNNNEQSGGGVVQPGRSLRLSCAASGFTFSSYGMYWVRQAPGKGLEWVAVIWYDGSNKYYADSVKGRFTISRDNSKNTLYLQMNSLRAEDTAVYYCARDFYDSSRYHYGMDVWGQGTTVTVSSA
VL: NNNNTQCPLSLPVTPGEPASISCRSSQSLLDSDDGNTYLDWYLQKPGQSPQLLIYTVSYRASGVPDRFSGSGSGTDFTLKISRVEAEDVGVYYCMQRIEFPITFGQGTRLEIKR
B3: mAb 2.61: fully human IgG4 kappa anti-TIM-1 monoclonal antibody; heavy chain SEQ ID NO: 38, light chain SEQ ID NO: 40 (antibody, listed as Homo Sapiens, V domains shown)
VH: QVQLVEAGGGVVQPGRSLRLSCAASGFTFRSYGMHWVRQAPGKGLKWVAVIWYDGSNKYYTDSVKGRFTISRDNSKNTLYLQMNSLRAEDTAVYYCVRDYYDNSRHHWGFDYWGQGTLVTVSSA
VL: DIQMTQSPSSRCASVGDRVTITCRASQGIRNDLAWYQQKPGKAPKRLIYAASSLQSGVPSRFSGSRSGTEFTLTISSLQPEDFAAYYCLQHNSYPPSFGQGTKLEIKR
B4: mAb 2.56: fully human IgG4 kappa anti-TIM-1 monoclonal antibody; heavy chain SEQ ID NO: 30, light chain SEQ ID NO: 32 (antibody, listed as Homo Sapiens)
heavy: B3 VH with A7S, R30S, K46E, N57H, T61A, C96S, V97A, N103T, Y112C
light: B2 VL with N1E, N2I, N3V, N4M, C7T, D33E, V57L, Y59H, Y93C, I98V
B5: mAb 2.70: fully human IgG4 kappa anti-TIM-1 monoclonal antibody; heavy chain SEQ ID NO: 42, light chain SEQ ID NO: 44 (antibody, listed as Homo Sapiens, V domains shown)
VH: B3 VH with A7S, T28I, R30S, S31R, Y59L, T61A, V97A
VL: B2 VL with N1D, N2I, N3V, N4M, C7T, Q27R, V57L, I98V
B6: mAb 2.54: fully human IgG4 kappa anti-TIM-1 monoclonal antibody; heavy chain SEQ ID NO: 26, light chain SEQ ID NO: 28 (antibody, listed as Homo Sapiens, V domains shown)
VH: QVQLEQSGGGVVQPGRSLRLSCAASGFTFTNYGLHWVRQAPGKGLDWVAVIWYDGSHKFYADSVKGRFTISRDNSKNTLFLQMNSLRAEDTAVYYCTRDLDYWGQGTLVTVSSA
VL: ETQLTQSPGTLSLSPGERVTLSCRASQSVSNNYLAWYQQKPGQAPRLLIYGASSRATGIPDRFSGSGSGTDFTLTISRLEPEDCAECYCQQYGSSLPLTFGGGTKVEIKR
B7: mAb 2.59: fully human IgG4 kappa anti-TIM-1 monoclonal antibody; heavy chain SEQ ID NO: 34, light chain SEQ ID NO: 36 (antibody, listed as Homo Sapiens, V domains shown)
VH: NNNNNQSGPRLVKPSQTLSLTCTVSGGSISSDGYYWSWIRQHPGKGLEWIGYIYYSGSTFYNPSLKSRVAISVDTSKNQFSLKLSSVTAADTAVYYCARESPHSSNWYSGFDCWGQGTLVTVSSA
VL: NNNNTQSPDFQSVTPKEKVTITCRASQSIGSRLHWYQQKPDQSPKLLIKYASQSFSGVPSRFSGSGSGTDFTLTINSLEAEDAATYYCHQSSNLPFTFGPGTKVDIKR

These molecules were tested against T1, TIM-1 antigen (Homo sapiens, UniProt Q96D42, DEL158-162/L179P) (assay: Epitope binning (antigen binding competition, Luminex)). Settings: Table 9.
T1 construct: V5; His; made in house; host or cells: baculovirus expression system (pMelV5His vector / pBlueBac)
T1 sequence (Q96D42 with tags, fused parts or gaps DEL158-162/L179P): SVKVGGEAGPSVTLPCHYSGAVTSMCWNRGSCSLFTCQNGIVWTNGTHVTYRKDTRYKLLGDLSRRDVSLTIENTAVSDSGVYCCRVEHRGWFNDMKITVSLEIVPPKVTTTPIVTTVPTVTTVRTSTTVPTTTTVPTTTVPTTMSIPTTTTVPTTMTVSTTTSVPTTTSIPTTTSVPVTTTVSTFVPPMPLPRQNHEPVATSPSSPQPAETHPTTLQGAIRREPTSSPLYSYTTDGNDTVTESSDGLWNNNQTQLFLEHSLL
Method: Certain antibodies, described herein were “binned” in accordance with the protocol described in U.S. Patent Application Publication No. 20030157730, published on Aug. 21, 2003, entitled “Antibody Categorization Based on Binding Characteristics.”
MxhIgG conjugated beads were prepared for coupling to primary antibody. The volume of supernatant needed was calculated using the following formula: (n+10)×50 μL (where n=total number of samples on plate). Where the concentration was known, 0.5 μg/mL was used. Bead stock was gently vortexed, then diluted in supernatant to a concentration of 2500 of each bead per well or 0.5×10^5/mL and incubated on a shaker in the dark at room temperature overnight, or 2 hours if at a known concentration of 0.5 μg/mL. Following aspiration, 50 μL of each bead was added to each well of a filter plate, then washed once by adding 100 μL/well wash buffer and aspirating. Antigen and controls were added to the filter plate 50 μL/well then covered and allowed to incubate in the dark for 1 hour on shaker. Following a wash step, a secondary unknown antibody was added at 50 μL/well using the same dilution (or concentration if known) as used for the primary antibody. The plates were then incubated in the dark for 2 hours at room temperature on shaker followed by a wash step. Next, 50 μL/well biotinylated mxhIgG diluted 1:500 was added and allowed to incubate in the dark for 1 hour on shaker at room temperature. Following a wash step, 50 μL/well Streptavidin-PE was added at 1:1000 and allowed to incubate in the dark for 15 minutes on shaker at room temperature. Following a wash step, each well was resuspended in 80 μL blocking buffer and read using a Luminex system.
Molecule B1 has a Bin of 4. In the case of B2, the Bin is reported as 4. For B3, the Bin was 4. B4 showed a Bin of 5. For B5, the Bin was 6. Work on B6 yielded a Bin of 7. For B7, the Bin was 1.

The molecules below were run against T1, TIM-1 antigen (assay: BiaCore affinity determination of anti-TIM-1 mAb). Settings: 25° C.; mAb captured on chip; TIM-1 antigen injected at 292 nM.
Type: binding
Method: BiaCore® analysis was used to determine binding affinity of anti-TIM-1 antibody to TIM-1 antigen. The analysis was performed at 25° C. using a BiaCore® 2000 biosensor equipped with a research-grade CMS sensor chip. A high-density goat […] antibody surface over a CMS BiaCore® chip was prepared using routine amine coupling. Antibody supernatants were diluted to ˜5 μg/mL in HBS-P running buffer containing 100 μg/mL BSA and 10 mg/mL carboxymethyldextran. The antibodies were then captured individually on a separate surface using a 2 minute contact time, and a 5 minute wash for stabilization of antibody baseline.
TIM-1 antigen was injected at 292 nM over each surface for 75 seconds, followed by a 3-minute dissociation. Double-referenced binding data were obtained by subtracting the signal from a control flow cell and subtracting the baseline drift of a buffer inject just prior to the TIM-1 injection. TIM-1 binding data for each mAb were normalized for the amount of mAb captured on each surface. The normalized, drift-corrected responses were also measured.
B4 was tested, and the Kd was 1.1 nM. B6 gave a Kd of 3.35 nM.
